# B1: His-MinD (B. subtilis MinD, N-terminally His-tagged) [B. subtilis] / itself (parent)
# chain: MGEAIVITSGKGGVGKTTTSANLGTALAILGKRVCLVDTDIGLRNLDVVMGLENRIIYDLVDVVEGRCKMHQALVKDKRFDDLLYLMPAAQTSDKTAVAPEQIKNMVQELKQEFDYVIIDCPAGIEQGYKNAVSGADKAIVVTTPEISAVRDADRIIGLLEQEENIEPPRLVVNRIRNHLMKNGDTMDIDEIVQHLSIDLLGIVADDDEVIKASNHGEPIAMDPKNRASIAYRNIARRILGESVPLQVLEEQNKGMMAKIKSFFGVRS
# Variants of: B1
# Experiment: gel filtration (size-exclusion chromatography), self-association
# Conditions: with itself; purification buffers supplied with excess Mg2+-ADP; read off a plot
row,elution volume,Variant
1,15.7 mL,chain 1 K16A
2,15.8 mL,chain 1 D40A
3,16.1 mL,chain 1 G12V

# Source: PMC13246001, “Membrane binding controls the ATPase cycle and localization of MinD in Bacillus subtilis” (eLife, 2026)
